Changes are numbered by the printed parent chain.
B1: Sti1 TPR2A–TPR2B (domain or fragment, S. cerevisiae)
chain: ADKEKAEGNKFYKARQFDEAIEHYNKAWELHKDITYLNNRAAAEYEKGEYETAISTLNDAVEQGREMRADYKVISKSFARIGNAYHKLGDLKKTIEYYQKSLTEHRTADILTKLRNAEKELKKAEAEAYVNPEKAEEARLEGKEYFTKSDWPNAVKAYTEMIKRAPEDARGYSNRAAALAKLMSFPEAIADCNKAIEKDPNFVRAYIRKATAQIAVKEYASALETLDAARTKDAEVNNGSSAREIDQLYYKASQ
notes: TPR2A-TPR2B segment of Sti1; also called TPR2A–TPR2B fragment; TPR1-lacking construct; source: E. coli BL21 (DE3) Codon Plus, purified (Hi-Trap, Superdex 200); not shown: 6xHis-SUMO or thrombin-cleavable 6xHis, N-terminal, cleaved
B2: Sti1 (stress-inducible protein 1), wild type (natural protein, S. cerevisiae, UniProt P15705 1-589, looked up)
chain: MSLTADEYKQQGNAAFTAKDYDKAIELFTKAIEVSETPNHVLYSNRSACYTSLKKFSDALNDANECVKINPSWSKGYNRLGAAHLGLGDLDEAESNYKKALELDASNKAAKEGLDQVHRTQQARQAQPDLGLTQLFADPNLIENLKKNPKTSEMMKDPQLVAKLIGYKQNPQAIGQDLFTDPRLMTIMATLMGVDLNMDDINQSNSMPKEPETSKSTEQKKDAEPQSDSTTSKENSSKAPQKEESKESEPMEVDEDDSKIEADKEKAEGNKFYKARQFDEAIEHYNKAWELHKDITYLNNRAAAEYEKGEYETAISTLNDAVEQGREMRADYKVISKSFARIGNAYHKLGDLKKTIEYYQKSLTEHRTADILTKLRNAEKELKKAEAEAYVNPEKAEEARLEGKEYFTKSDWPNAVKAYTEMIKRAPEDARGYSNRAAALAKLMSFPEAIADCNKAIEKDPNFVRAYIRKATAQIAVKEYASALETLDAARTKDAEVNNGSSAREIDQLYYKASQQRFQPGTSNETPEETYQRAMKDPEVAAIMQDPVMQSILQQAQQNPAALQEHMKNPEVFKKIQTLIAAGIIRTGR
notes: Sti1, yeast cochaperone of Hsp70 and Hsp90, full length; also called wild-type Sti1; full-length Sti1; source: E. coli BL21 (DE3) Codon Plus, purified (Hi-Trap, Superdex 200); not shown: 6xHis-SUMO or thrombin-cleavable 6xHis, N-terminal, cleaved
B3: Sti1 R469A (natural protein, S. cerevisiae, UniProt P15705 1-589, looked up)
chain: B2 chain with R469A
notes: source: E. coli BL21 (DE3) Codon Plus, purified (Hi-Trap, Superdex 200); not shown: 6xHis-SUMO or thrombin-cleavable 6xHis, N-terminal, cleaved
B4: Sti1 N39A (natural protein, S. cerevisiae, UniProt P15705 1-589, looked up)
chain: B2 chain with N39A
notes: also called TPR1-defective construct; source: E. coli BL21 (DE3) Codon Plus, purified (Hi-Trap, Superdex 200); not shown: 6xHis-SUMO or thrombin-cleavable 6xHis, N-terminal, cleaved

Assays:
Settings in all cases: both partners purified
[1] = target: T1, fluorescein-labelled yHsp70 (Ssa1) (yeast, UniProt P10591 1-642, 5-(and -6)-carboxyfluorescein covalently coupled (amine-reactive dye); sites not stated); test: AUC; ternary complexes, fluorescence detection: 0.5 μM fluorescein-labelled yHsp70 and 3 μM yHsp90 with 0.5 to 8 μM Sti1 variant; 10 mM potassium phosphate pH 7.5; 20 °C; 42,000 r.p.m.; dc/dt plots
T1 construct: Yeast Hsp70 Ssa1, full length, labelled with carboxyfluorescein; Same protein as m11, with the fluorescent label used for AUC; also called fluorescently labelled yHsp70; fluorescently labelled Ssa1; source: Pichia pastoris KM71H-Ssa1, purified (Hi-Trap, Superdex 200), then labelled

yHsp90 (Hsp82) = target: T2, yHsp90 (Hsp82) (yeast, UniProt P02829 1-709); test: as above
T2 construct: Yeast Hsp90 Hsp82; source: E. coli BL21 (DE3) Codon Plus, purified (Hi-Trap, Superdex 200); not shown: 6xHis-SUMO or thrombin-cleavable 6xHis, N-terminal, cleaved

yHsp70 (Ssa1) [2] = target: T3, yHsp70 (Ssa1) (yeast, UniProt P10591 1-642); test: SPR; Hsp70 amine-coupled to a CM5 chip, Sti1 variants as analyte; 40 mM Hepes pH 7.5, 20 mM KCl, 5 mM MgCl2, 0.005% Tween; 10 μl/min; 20 °C; Langmuir isotherm; affinities shown normalized to wild-type Sti1
T3 construct: Yeast Hsp70 Ssa1, full length; The strain carries a 6xHis-SSA1 gene; The methods speak of cleavage of the His6-SUMO tag or His-tag in general, and it is not clear whether this holds for Ssa1; source: Pichia pastoris KM71H-Ssa1, purified (Hi-Trap, Superdex 200)

yHsp70 (Ssa1) [3] = target: T3, yHsp70 (Ssa1); test: SAXS; mixtures of a Sti1 variant and Hsp70 at 1:1 and 1:2; solute 1 to 10 mg/ml; in-house SAXSess mc2; masses from I(0)

T3 sequence (P10591 whole entry): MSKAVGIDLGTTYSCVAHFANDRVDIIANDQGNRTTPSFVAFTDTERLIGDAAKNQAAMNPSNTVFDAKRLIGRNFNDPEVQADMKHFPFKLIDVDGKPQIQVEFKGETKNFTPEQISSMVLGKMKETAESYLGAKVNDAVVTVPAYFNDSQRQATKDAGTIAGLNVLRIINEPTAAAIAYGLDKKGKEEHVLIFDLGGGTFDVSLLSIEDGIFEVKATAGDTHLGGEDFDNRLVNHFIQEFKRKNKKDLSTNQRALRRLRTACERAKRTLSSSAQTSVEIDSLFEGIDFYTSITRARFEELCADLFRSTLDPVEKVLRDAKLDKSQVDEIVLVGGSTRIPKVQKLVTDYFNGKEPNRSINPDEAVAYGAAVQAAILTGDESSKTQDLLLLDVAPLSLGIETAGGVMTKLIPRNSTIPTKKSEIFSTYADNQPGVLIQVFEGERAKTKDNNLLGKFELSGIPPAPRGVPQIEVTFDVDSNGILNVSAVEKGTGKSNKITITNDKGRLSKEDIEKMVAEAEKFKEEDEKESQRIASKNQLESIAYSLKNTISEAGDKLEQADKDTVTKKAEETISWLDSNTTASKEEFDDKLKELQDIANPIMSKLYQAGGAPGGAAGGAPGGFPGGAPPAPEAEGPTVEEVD
T1 sequence (P10591 whole entry): as above

| binding result [1] | binding result (yHsp90 (Hsp82)) | binding result (yHsp70 (Ssa1) [2]) | stoichiometry N (yHsp70 (Ssa1) [3]) | Binder |
| --- | --- | --- | --- | --- |
| binds | binds | binds | – | B1 |
| – | – | – | 1 | B2 |
| – | – | binds | – | B3 |
| binds | binds | binds | – | B4 |

Source: publication PMC4403447, “Hsp90 regulates the dynamics of its cochaperone Sti1 and the transfer of Hsp70 between modules” (Nature Communications, 2015)
